# US20250074949A1 (BRIGHAM AND WOMEN S HOSPITAL, published 2025)
# T1: mouse LY6A (mouse, UniProt P05533 27-112)
# T1 construct: whole, on cells
# T1 sequence: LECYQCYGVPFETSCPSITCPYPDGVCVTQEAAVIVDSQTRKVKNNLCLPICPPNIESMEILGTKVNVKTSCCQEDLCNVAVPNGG
# Target: T1, mouse LY6A
# Assay: AAV binding to LY6A-transfected HEK293T cells on ice, bound viral genomes counted by qPCR
row,Binder,binding result
1,"AAV.CPP.16 (other, Whole recombinant AAV particle in the assay; also called Bip2.1 insert TVSALK) MAADGYLPDWLEDNLSEGIREWWALKPGAPQPKANQQHQDNARGLVLPGYKYLGPGNGLDKGEPVNAADAAALEHDKAYDQQLKAGDNPYLKYNHADAEFQERLKEDTSFGGNLGRAVFQAKKRLLEPLGLVEEAAKTAPGKKRPVEQSPQEPDSSAGIGKSGAQPAKKRLNFGQTGDTESVPDPQPIGEPPAAPSGVGSLTMASGGGAPVADNNEGADGVGSSSGNWHCDSQWLGDRVITTSTRTWALPTYNNHLYKQISNSTSGGSSNDNAYFGYSTPWGYFDFNRFHCHFSPRDWQRLINNNWGFRPKRLNFKLFNIQVKEVTDNNGVKTIANNLTSTVQVFTDSDYQLPYVLGSAHEGCLPPFPADVFMIPQYGYLTLNDGSQAVGRSSFYCLEYFPSQMLRTGNNFQFSYEFENVPFHSSYAHSQSLDRLMNPLIDQYLYYLSKTINGSGQNQQTLKFSVAGPSNMAVQGRNYIPGPSYRQQRVSTTVTQNNNSEFAWPGASSWALNGRNSLMNPGPAMASHKEGEDRFFPLSGSLIFGKQGTGRDNVDADKVMITNEEEIKTTNPVATESYGQVATNHQSAQTVSALKAQAQTGWVQNQGILPGMVWQDRDVYLQGPIWAKIPHTDGNFHPSPLMGGFGMKHPPPQILIKNTPVPADPPTAFNKDKLNSFITQYSTGQVSVEIEWELQKENSKRWNPEIQYTSNYYKSNNVEFAVNTEGVYSEPRPIGTRYLTRNL",no binding (tested: MOI of 10000)
2,"AAV.CPP.21 (other, Whole recombinant AAV particle in the assay; also called Bip2.6 insert TVSALFK) MAADGYLPDWLEDNLSEGIREWWALKPGAPQPKANQQHQDNARGLVLPGYKYLGPGNGLDKGEPVNAADAAALEHDKAYDQQLKAGDNPYLKYNHADAEFQERLKEDTSFGGNLGRAVFQAKKRLLEPLGLVEEAAKTAPGKKRPVEQSPQEPDSSAGIGKSGAQPAKKRLNFGQTGDTESVPDPQPIGEPPAAPSGVGSLTMASGGGAPVADNNEGADGVGSSSGNWHCDSQWLGDRVITTSTRTWALPTYNNHLYKQISNSTSGGSSNDNAYFGYSTPWGYFDFNRFHCHFSPRDWQRLINNNWGFRPKRLNFKLFNIQVKEVTDNNGVKTIANNLTSTVQVFTDSDYQLPYVLGSAHEGCLPPFPADVFMIPQYGYLTLNDGSQAVGRSSFYCLEYFPSQMLRTGNNFQFSYEFENVPFHSSYAHSQSLDRLMNPLIDQYLYYLSKTINGSGQNQQTLKFSVAGPSNMAVQGRNYIPGPSYRQQRVSTTVTQNNNSEFAWPGASSWALNGRNSLMNPGPAMASHKEGEDRFFPLSGSLIFGKQGTGRDNVDADKVMITNEEEIKTTNPVATESYGQVATNHQSAQTVSALFKAQAQTGWVQNQGILPGMVWQDRDVYLQGPIWAKIPHTDGNFHPSPLMGGFGMKHPPPQILIKNTPVPADPPTAFNKDKLNSFITQYSTGQVSVEIEWELQKENSKRWNPEIQYTSNYYKSNNVEFAVNTEGVYSEPRPIGTRYLTRNL",no binding (tested: MOI of 10000)
